Experimental data published in publication PMC6706415, “Inhibition of amyloid beta toxicity in zebrafish with a chaperone-gold nanoparticle dual strategy” (Nature Communications, 2019).

Biological target: T1, amyloid beta 42 monomers (UniProt P05067 672-713)
T1 construct: Aβ42, the 42-residue peptide derived from amyloid precursor protein (APP) by proteolysis; HFIP-treated Aβ was considered as Aβm; The peptide fibrillizes during 48 h incubations at 37 °C; also called Aβ42; Aβ; source: bought: Anaspec Inc., purity ≥ 95%; HFIP-treated
Test: zeta potential + dynamic light scattering + TEM + CD; Aβ (100 µM; for TEM the ThT ratio, 50 µM Aβ to 6.25 µM βCas) with βCas or βCas AuNPs (12.5 µM βCas equivalent), 48 h at 37 °C in deionized water
Details: both partners purified

binding result: binds
B1: β casein (natural protein, UniProt P02666 16-224, looked up)
chain: RELEELNVPGEIVESLSSSEESITRINKKIEKFQSEEQQQTEDELQDKIHPFAQTQSLVYPFPGPIPNSLPQNIPPLTQTPVVVPPFLQPEVMGVSKVKEAMAPKHKEMPFPKYPVEPFTESQSLTLTDVENLHLPLPLLQSWMHQPHQPLPPTVMFPPQSVLSLSQSKVLPVPQKAVPYPQRDMPIQAFLLYQEPVLGPVRGPFPIIV
notes: β casein (βCas); Free βCas, which forms micelles in water; Probably the milk protein, which is naturally phosphorylated (surmise); also called βCas micelles
